± gives the uncertainty stated by the source.
Assay: self-splicing fitness, log relative to wild type (ln ratio); higher = more splicing; Tetrahymena group I intron in knt gene, E. coli kanamycin selection, DiMSum; sequences stand for … in CUCUCU…GGAGGGAAAAGUUAUCAGGCAUGCACCUGGUAGCUAGUCUUUAAACCAAUAGAUUGCAUCGGUUUAAAAGGCAAGACCGUCAAAUUGCGGGAAAGGGGUCAACAGCCGUUCAGUACCAAGUCUCAGGGGAAACUUUGAGAUGGCCUUGCAAAGGGUAUGGUAAUAAGCUGACGGACAUGGUCCUAACCACGCAGCCAAGUCCUAAGUCAACAGAUCUUCUGUUGAUAUGGAUGCAGUUCACAGACUAAAUGUCGGUCGGGGAAGAUGUAUUCUUCUCAUAAGAUAUAGUCGGACCUCUCCUUAAUGGGAGCUAGCGGAUGAAGUGAUGCAACACUGGAGCCGCUGGGAACUAAUUUGUAUGCGAAAGUAUAUUGAUUAGUUUUGGAGUACUCGUGGUCG
Method in brief: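 Fitness was computed with DiMSum as the error-weighted combination of replicate fold changes, kanamycin versus none, each normalised to wild type. The library randomised all eight intron nucleotides of the P1ex region, with the intron placed in the knt kanamycin-resistance gene on pET-22b(+) in E. coli BL21(DE3). Six replicate transformations were grown overnight at 37°C or 30°C on LB agar with or without 25 μg/mL kanamycin, plus 100 μg/mL carbenicillin, 50 μM IPTG and 0.2% rhamnose. Pooled colonies were amplicon-sequenced on an Illumina HiSeq 2500.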

Sequence	self-splicing fitness (ln) (30 °C)	self-splicing fitness (ln) (37 °C)
AUGCAGCAAUAUUACGCACC	-1.11 ± 0.18	-0.696 ± 0.21
AUGCAGCAAUAUUACGCAGA	-2.98 ± 0.16	-1.71 ± 0.12
AUGCAGCAAUAUUACGCAUG	-3.28 ± 0.35	-2.66 ± 0.31
AUGCAGCAAUAUUACGCAUU	-3.49 ± 0.11	-3.37 ± 0.19
AUGCAGCAAUAUUACGCCAA	-1.09 ± 0.12	-0.608 ± 0.14
AUGCAGCAAUAUUACGCCUG	-2.61 ± 0.35	
AUGCAGCAAUAUUACGCGGC	-3.79 ± 0.47	
AUGCAGCAAUAUUACGGCAA	0.0857 ± 0.12	0.0922 ± 0.12
AUGCAGCAAUAUUACGGCGG	-1.76 ± 0.068	-0.59 ± 0.081
AUGCAGCAAUAUUACGGGAU	-2.25 ± 0.088	-1.06 ± 0.097
AUGCAGCAAUAUUACGGGGG	-3.09 ± 0.18	-1.9 ± 0.16
AUGCAGCAAUAUUACGGGGU	-3.71 ± 0.17	-2.88 ± 0.18
AUGCAGCAAUAUUACGGUGA	-0.911 ± 0.093	-0.872 ± 0.1
AUGCAGCAAUAUUACGGUUA	-1.11 ± 0.079	-0.0917 ± 0.071
AUGCAGCAAUAUUACGUACC	-0.541 ± 0.084	0.409 ± 0.1
AUGCAGCAAUAUUACGUAUG	-3.15 ± 0.16	-1.09 ± 0.16
AUGCAGCAAUAUUACGUCGA	-1.61 ± 0.09	-0.738 ± 0.11
AUGCAGCAAUAUUACGUCGC	-3.69 ± 0.31	-2.57 ± 0.32
AUGCAGCAAUAUUACGUCUC	-1.93 ± 0.071	-1.05 ± 0.092
AUGCAGCAAUAUUACGUGAG	-1.36 ± 0.049	-1.06 ± 0.073
AUGCAGCAAUAUUACGUUCC	-1.55 ± 0.18	-1.17 ± 0.22
AUGCAGCAAUAUUACGUUGG	-2.96 ± 0.098	-2.33 ± 0.17
AUGCAGCAAUAUUACGUUUU	-2.8 ± 0.1	-1.65 ± 0.099
AUGGAGCAAUAUUACGAGGU	-2.74 ± 0.2	-3.38 ± 0.31

Sequence	self-splicing fitness (ln) (30 °C)	self-splicing fitness (ln) (37 °C)
AUGGAGCAAUAUUACGCACG	-2.3 ± 0.3	-1.26 ± 0.34
AUGGAGCAAUAUUACGCCUG	-2.34 ± 0.27	-2.3 ± 0.28
AUGGAGCAAUAUUACGCGGU	-2.6 ± 0.25	-2.29 ± 0.25
AUGGAGCAAUAUUACGGAUU	-2.09 ± 0.13	0.177 ± 0.13
AUGGAGCAAUAUUACGGGGA	-3.29 ± 0.4	-2.28 ± 0.32
AUGGAGCAAUAUUACGGUGU	-2.12 ± 0.18	-0.816 ± 0.24
AUGGAGCAAUAUUACGUAGA		-2.39 ± 0.42
AUGGAGCAAUAUUACGUCGG	-2.7 ± 0.26	-1.13 ± 0.24
AUGGAGCAAUAUUACGUUAG	-3.17 ± 0.32	-2.49 ± 0.29
AUGGAGCAAUAUUACGUUAU	-2.96 ± 0.13	-1.77 ± 0.12
AUGGAGCAAUAUUACGUUGC	-3.34 ± 0.4	-2.22 ± 0.42
AUGUAGCAAUAUUACGAAAC	-2.77 ± 0.24	-1.76 ± 0.27
AUGUAGCAAUAUUACGACAC	-1.31 ± 0.14	-0.0916 ± 0.2
AUGUAGCAAUAUUACGAGAG	-4.62 ± 0.39	-2.71 ± 0.22
AUGUAGCAAUAUUACGAGGG	-3.49 ± 0.23	-1.18 ± 0.22
AUGUAGCAAUAUUACGAGGU	-2.28 ± 0.19	-1.84 ± 0.23
AUGUAGCAAUAUUACGAGUA	-2.73 ± 0.17	-1.72 ± 0.13
AUGUAGCAAUAUUACGAUUU	-0.199 ± 0.093	0.373 ± 0.11
AUGUAGCAAUAUUACGCGCG	-0.882 ± 0.093	-0.464 ± 0.099
AUGUAGCAAUAUUACGCGUG	-1.44 ± 0.12	-0.836 ± 0.12
AUGUAGCAAUAUUACGCUUA	-0.903 ± 0.14	-0.145 ± 0.16
AUGUAGCAAUAUUACGGACC	-1.05 ± 0.2	-0.411 ± 0.21
AUGUAGCAAUAUUACGGAUC	-1.92 ± 0.2	-1.61 ± 0.23
AUGUAGCAAUAUUACGGCAU	-1.88 ± 0.12	-1.69 ± 0.16

Sequence	self-splicing fitness (ln) (30 °C)	self-splicing fitness (ln) (37 °C)
AUGUAGCAAUAUUACGGGAG	-3.16 ± 0.29	-2.64 ± 0.44
AUGUAGCAAUAUUACGGGUU	-2.26 ± 0.1	-2.23 ± 0.19
AUGUAGCAAUAUUACGGUUG	-3.62 ± 0.2	-1.99 ± 0.19
AUGUAGCAAUAUUACGUAUC	-4.2 ± 0.42	-2.58 ± 0.3
AUGUAGCAAUAUUACGUCCA	-1.65 ± 0.17	-0.252 ± 0.17
AUGUAGCAAUAUUACGUCCU	-0.674 ± 0.13	0.252 ± 0.19
AUGUAGCAAUAUUACGUGAU	-1.52 ± 0.082	-0.75 ± 0.11
AUGUAGCAAUAUUACGUUAG	-1.89 ± 0.22	-2.97 ± 0.4
AUUAAGCAAUAUUACGAAAU	-1.35 ± 0.13	-1.44 ± 0.18
AUUAAGCAAUAUUACGACCA	-0.395 ± 0.2	-0.571 ± 0.25
AUUAAGCAAUAUUACGAUAG	-3.89 ± 0.37	-2.55 ± 0.31
AUUAAGCAAUAUUACGAUUA	-0.777 ± 0.13	-0.308 ± 0.13
AUUAAGCAAUAUUACGCAUC	-3.36 ± 0.31	-1.24 ± 0.25
AUUAAGCAAUAUUACGCCUG	-0.765 ± 0.15	-0.543 ± 0.17
AUUAAGCAAUAUUACGGCCU	-0.548 ± 0.1	-0.318 ± 0.12
AUUAAGCAAUAUUACGGCGA	-0.67 ± 0.12	-0.121 ± 0.14
AUUAAGCAAUAUUACGGCUU	-0.718 ± 0.088	0.207 ± 0.12
AUUAAGCAAUAUUACGGGUU	-2.34 ± 0.23	-2.92 ± 0.38
AUUAAGCAAUAUUACGGUAA	-1.64 ± 0.12	-1.33 ± 0.11
AUUAAGCAAUAUUACGGUAU	-1.01 ± 0.11	-1.2 ± 0.14
AUUAAGCAAUAUUACGUACG	-1.15 ± 0.13	-0.777 ± 0.14
AUUAAGCAAUAUUACGUAGG	-2.34 ± 0.18	-1.81 ± 0.29
AUUAAGCAAUAUUACGUCCU	-0.24 ± 0.097	0.264 ± 0.12
AUUAAGCAAUAUUACGUCGC	-3.33 ± 0.22	-2.8 ± 0.25

Sequence	self-splicing fitness (ln) (30 °C)	self-splicing fitness (ln) (37 °C)
AUUAAGCAAUAUUACGUUAG	-2.76 ± 0.23	-3.12 ± 0.27
AUUAAGCAAUAUUACGUUGU	-1.98 ± 0.21	-2.8 ± 0.32
AUUCAGCAAUAUUACGACCU	-0.21 ± 0.095	0.317 ± 0.12
AUUCAGCAAUAUUACGAGGC	-3.49 ± 0.19	-1.51 ± 0.19
AUUCAGCAAUAUUACGAGUA	-1.81 ± 0.2	-1.24 ± 0.18
AUUCAGCAAUAUUACGCAAG	-1.26 ± 0.098	-0.884 ± 0.13
AUUCAGCAAUAUUACGCCAU	-1.46 ± 0.1	-1.09 ± 0.1
AUUCAGCAAUAUUACGCCCA	-1.11 ± 0.18	-0.0785 ± 0.23
AUUCAGCAAUAUUACGCGAC	-2.38 ± 0.23	-0.937 ± 0.18
AUUCAGCAAUAUUACGCUAU	-1.45 ± 0.079	-0.637 ± 0.1
AUUCAGCAAUAUUACGCUGC	-2.3 ± 0.13	-2.35 ± 0.19
AUUCAGCAAUAUUACGCUUC	-2.28 ± 0.15	-1.76 ± 0.18
AUUCAGCAAUAUUACGGACA	-0.904 ± 0.078	-0.744 ± 0.095
AUUCAGCAAUAUUACGGACC	-0.601 ± 0.1	0.355 ± 0.15
AUUCAGCAAUAUUACGGACG	-0.626 ± 0.08	-0.168 ± 0.098
AUUCAGCAAUAUUACGGGGC	-3.25 ± 0.3	-2.99 ± 0.21
AUUCAGCAAUAUUACGGUGA	-0.556 ± 0.097	-0.526 ± 0.086
AUUCAGCAAUAUUACGUUAA	-1.62 ± 0.12	-0.923 ± 0.1
AUUGAGCAAUAUUACGAACC		-2.31 ± 0.46
AUUGAGCAAUAUUACGAGAU	-3.73 ± 0.35	-1.11 ± 0.26
AUUGAGCAAUAUUACGAGUC	-4.1 ± 0.34	-2.38 ± 0.35
AUUGAGCAAUAUUACGCCUU	-2.26 ± 0.39	-1.89 ± 0.3
AUUGAGCAAUAUUACGCGAC	-3.45 ± 0.3	-1.2 ± 0.24
AUUGAGCAAUAUUACGCGCU	-2.3 ± 0.29	-1.29 ± 0.41
